Test results from patent US10337022B2, “Methods of increasing root biomass in plants” (Agresearch Limited, priority 2014, dated 2019).

Experiments:
BZR1 [1] = molecular target: T1, BZR1 (Arabidopsis thaliana, UniProt Q8S307); assay: Yeast two hybrid (Y2H) interaction with BZR1; assay type: binding; settings: yeast strain MaV203
T1 construct: expressed in transfected cells; host or cells: yeast strain MaV203
T1 sequence (Q8S307 with tags, fused parts or gaps): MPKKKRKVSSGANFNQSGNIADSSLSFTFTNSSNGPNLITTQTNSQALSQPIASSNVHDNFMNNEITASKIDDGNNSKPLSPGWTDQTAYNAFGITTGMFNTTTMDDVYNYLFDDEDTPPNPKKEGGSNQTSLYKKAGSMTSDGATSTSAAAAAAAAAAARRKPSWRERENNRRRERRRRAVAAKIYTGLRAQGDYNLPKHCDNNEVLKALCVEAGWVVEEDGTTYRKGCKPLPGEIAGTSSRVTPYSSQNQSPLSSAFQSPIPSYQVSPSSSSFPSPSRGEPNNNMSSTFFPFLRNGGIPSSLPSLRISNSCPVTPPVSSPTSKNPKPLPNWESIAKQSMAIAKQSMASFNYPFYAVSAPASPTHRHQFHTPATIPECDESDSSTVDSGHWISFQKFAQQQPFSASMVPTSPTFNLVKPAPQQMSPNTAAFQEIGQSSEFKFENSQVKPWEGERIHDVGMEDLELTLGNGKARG
Protocol: Combinations of bait and prey constructs were used to co-transform yeast strain MaV203 (Invitrogen), with selection on synthetic dropout (SD) SD/-Leu/-Trp agar plates. Transformed strains were tested for interactions using 10 μl droplets of 1 in 10 and 1 in 100 dilutions on SD/-Leu/-Trp/-His plates with different concentrations of 3-aminotriazol (3-AT) (Sigma).

[2] = test system: alfalfa (variety USD5) plants; assay: Root biomass analysis of alfalfa transformants; assay type: in vivo; settings: constitutive promoter, approximately 6 weeks in growth cabinet
Protocol: Cuttings of approximately equal size were taken from WT and alfalfa (variety USD5) plants transformed with Arabidopsis PPD under a constitutive promoter. Cuttings were planted into plastic grow bags containing potting mix. […] The increase in root biomass was quantified by washing the roots under running water (these were photographed, FIG. 12) then the attached above ground portion (leaves and stems) was removed and the roots dried at 65° C. for 48 hr then weighed Table 5.

BZR1 [3] = molecular target: T2, BZR1 (Arabidopsis thaliana, UniProt Q8S307); assay: BiFC interaction with BZR1 in Nicotiana benthamiana leaves; assay type: cell-based
T2 construct: expressed in transfected cells; host or cells: Nicotiana benthamiana leaves (Agrobacterium infiltration)
T2 sequence (Q8S307 1-336): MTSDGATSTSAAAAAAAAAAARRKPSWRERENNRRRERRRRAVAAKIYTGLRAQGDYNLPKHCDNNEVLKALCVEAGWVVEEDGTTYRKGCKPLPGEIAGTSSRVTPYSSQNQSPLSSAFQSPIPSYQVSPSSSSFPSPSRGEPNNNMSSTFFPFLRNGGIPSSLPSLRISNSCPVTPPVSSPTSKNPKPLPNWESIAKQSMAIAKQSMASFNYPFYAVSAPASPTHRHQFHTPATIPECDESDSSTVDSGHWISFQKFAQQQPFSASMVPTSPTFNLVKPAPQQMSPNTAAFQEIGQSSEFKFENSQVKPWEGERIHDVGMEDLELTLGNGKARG
Excerpt: (§1) The binary BiFC-Gateway YFP vectors pDEST-VYNE(R)^GW (Venus aa 1-173) and pDEST-VYCE(R)^GW (Venus aa 156-239) with N-terminal fusions, were used to construct the following vectors; pDESTnYFP-BZR1, pDESTnYFP-NINJA, pDESTnYFP-PPD1, pDESTcYFP-BZR1, pDESTcYFP-PPD1, pDESTcYFP-PPD1Δppd, pDESTcYFP-PPD1Δtify and pDESTcYFP-PPD1Δjas*. […] Plasmids for co-immunoprecipitation: A synthesised DNA construct encoding PPD1 with a 3×c-myc C-terminal fusion was sub-cloned into pRSh1 to produce pRSh1-PPD1-3×c-myc, while the NINJA cDNA sequence was sub-cloned into pB7FWG2,0 (Karimi et al 2002, Trends Plant Sci. 7, 193-195) to construct pB7FWG2-NINJA-GFP.
(§2) For infiltration Agrobacterium tumefaciens GV3101 strains containing the binary vectors were re-suspended from plates and prepared for transformation as described for the LUC assay. All YFP and expression strains were mixed in ratios of 1:1 (vol/vol) with the addition of strain P19 at 1/10th volume. Five leaf discs were sampled from each infiltrated leaf after 40 h. Two hours prior to sampling for microscopic fluorescence observations leaves were infiltrated with a 1 μg/ml DAPI solution to stain nuclei. YFP fluorescence and DAPI staining was detected using an Olympus Fluoview FV10i confocal laser scanning microscope. Each experiment was repeated twice.

ryegrass plants = assay: Root biomass analysis of ryegrass transformants; assay type: in vivo; settings: approximately 6 weeks in glasshouse
Protocol: (§3) An equal number (typically 4-10) of tillers were taken from WT and ryegrass plants transformed with Arabidopsis PPD under a constitutive promoter. Tillers were planted into plastic grow bags containing potting mix and pruned to be of equal height. […] The increase in root biomass was quantified by washing the roots under running water then removing the attached above ground portion (leaves and stems) and drying the roots at 65° C. for 48 hr then weighing the dry weights (Table 2).
as §3, with “one of three root promoters.” for “a constitutive promoter.”, “3 and Table 4)” for “2).”

NINJA = molecular target: T3, NINJA (Arabidopsis thaliana, UniProt Q9SV55); assay: BiFC interaction with NINJA in Nicotiana benthamiana leaves; assay type: cell-based; settings: in planta
T3 construct: expressed in transfected cells; host or cells: Nicotiana benthamiana leaves (Agrobacterium infiltration)
T3 sequence (Q9SV55 with tags, fused parts or gaps): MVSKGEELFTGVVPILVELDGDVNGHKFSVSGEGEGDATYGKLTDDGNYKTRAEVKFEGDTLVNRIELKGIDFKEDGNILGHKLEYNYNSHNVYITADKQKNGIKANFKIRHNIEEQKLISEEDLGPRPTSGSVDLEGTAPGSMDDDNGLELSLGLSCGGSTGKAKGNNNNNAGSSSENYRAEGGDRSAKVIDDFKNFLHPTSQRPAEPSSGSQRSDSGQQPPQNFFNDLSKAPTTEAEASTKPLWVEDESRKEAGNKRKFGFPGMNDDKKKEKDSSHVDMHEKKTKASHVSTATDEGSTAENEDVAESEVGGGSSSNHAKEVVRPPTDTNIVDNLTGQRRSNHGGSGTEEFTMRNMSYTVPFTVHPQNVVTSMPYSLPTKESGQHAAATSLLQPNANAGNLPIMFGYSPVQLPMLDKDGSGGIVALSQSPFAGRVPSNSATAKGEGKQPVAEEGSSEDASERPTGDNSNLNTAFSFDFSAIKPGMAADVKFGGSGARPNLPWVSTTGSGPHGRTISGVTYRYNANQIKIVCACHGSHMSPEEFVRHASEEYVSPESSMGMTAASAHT
Excerpt: as §1, §2

B1: Arabidopsis PPD: Arabidopsis thaliana PEAPOD 1 protein, At4g14713, SEQ ID NO: 1 (protein, listed as Arabidopsis thaliana)
chain: MDVGVSPAKSILAKPLKLLTEEDISQLTREDCRKFLKDKGMRRPSWNKSQAIQQVLSLKALYEPGDDSGAGIFRKILVSQPVNPPRVTTTLIEPSNELEACGRVSYPEDNGACHRMDSPRSAEFSGGSGHFVSEKDGHKTTISPRSPAETSELVGQMTIFYSGKVNVYDGIPPEKARSIMHFAANPIDLPENGIFASSRMISKLISKEKMMELPQKGLEKANSSRDSGMEGQANRKVSLQRYREKRKDRKFSKAKKCPGVASSSLEMFLNCQPRMKAAYSQNLGCTGSPLHSQSPESQTKSPNLSVDLNSEGI
Question: B1 was tested. Which “Y2H direct interaction with BZR1” value (BZR1 [1]) did it give?
Answer: no direct interaction

Question: And the “root growth beyond the grow bag compared to WT plants” value [2]?
Answer: increase in root biomass/growth/length/branching

Question: What about the “BiFC interaction with BZR1” value (BZR1 [3]; fully expanded leaves, co-expression of NINJA) of the same molecule?
Answer: restored

Question: And the “BiFC interaction with BZR1” value (BZR1 [3]; pavement cells of immature Nicotiana benthamiana leaves)?
Answer: appears to interact with BZR1 in the nucleus

Question: And the “root growth beyond the grow bag compared to WT plants” value (ryegrass plants; constitutive promoter)?
Answer: increase in root biomass/growth/length/branching

Question: What about the “root growth beyond the grow bag compared to WT plants” value (ryegrass plants; one of three root promoters) of the same molecule?
Answer: increase in root biomass/growth/length/branching

Question: And the “BiFC interaction with NINJA” value (NINJA)?
Answer: interacted with NINJA in plants
